# Experimental data reported in the supplement of paper PMC12042874.
# ± gives the uncertainty stated by the source.
# Test: amyloid nucleation score (Sup35N fusion, yeast selection) (log enrichment); library NNK3; higher = more nucleation; inactive = no reads after selection
# Method in brief: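 The nucleation score is a DiMSum log enrichment of output over input reads, centred on the mode score of non-aggregating sequences. Sequences under 100 input reads were excluded, and reads came from Illumina sequencing of plasmid inserts. Psi-negative yeast expressing Sup35N fused to peptides of 20 random codons were induced with 100 μM copper sulfate for 24 hours and grown 7 days at 30°C on medium lacking adenine and uracil. Random libraries had three technical output replicates.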
row,Substance,amyloid nucleation score
1,RHLLTISKPEMMCGDADEYR,inactive
2,LIDKCGKHQTFMGC,inactive
3,NLEYDPIRHRNVLNPSWFCS,inactive
4,QMSGMFTLVDWT,inactive
5,RYNGSTTGSRLYMLLSMSLN,inactive
6,LCSYSIESFALLHVFNEAFQ,inactive
7,LELDCASNRLSPNGIYMYFW,0.123 ± 0.35
8,IVYLDIDVFFMFLCVASRTE,1.59 ± 0.081
9,AMNNAGSGKQEYNRYGEIIN,inactive
10,SSYCGHCNYEPRSSWFILFF,1.61 ± 0.072
11,RKGFKAIGY,inactive
12,NHFFALSLVII,inactive
13,GMSICVPSKS,0.179 ± 0.34
14,KIMFLMGSASMDSTGTC,0.863 ± 0.12
15,TLLLMSWHFGYMRAQF,3.14 ± 0.05
16,VRYVSFAEFSWGLRFSVSRR,inactive
17,LPNRYVMINGCIRQFAKCDI,1.58 ± 0.08
18,VSRMARYRLLTYRSAFNSML,-0.605 ± 1.2
19,TLCQREPG,0.209 ± 0.71
20,VSHLAQHCNRLLLVSMLLGA,inactive
21,NFSNHCRKLGEME,inactive
22,HLNGVALFNW,0.917 ± 0.11
23,WAKNHPDLIMLIFADTISYN,2.31 ± 0.058
24,WSILL,inactive
25,GDEVHGFIVVQSREAFSRKL,inactive
26,SHKNGFFSQETR,inactive
27,GLRNYRDGVKIASAVSVGAS,inactive

row,Substance,amyloid nucleation score
1,WQTKIGYSGRLFDRTLGDAK,inactive
2,RSWQEMFCEWSSALDWDWSV,inactive
3,KIYGIPYCTRVGCNLWPGAG,0.294 ± 0.39
4,VVWASV,inactive
5,RCVRVIFSVMGDWVFISKNE,inactive
6,PGIPGPQLIYRDTILTLECM,0.03 ± 0.88
7,FMGVT,inactive
8,TYRCYELVGDTVC,inactive
9,LYKGSHWDQAFLSVWYLGVL,inactive
10,CSLWSMQGYLHEWRICCWRH,inactive
11,TSYNCCVVHSVRTAIFARG,inactive
12,SLNER,inactive
13,LCSLCNSLAQWRYNSEWLYT,inactive
14,LYAYVQVIGDQA,inactive
15,CFDWYFDNDTRFIVGAMLVW,inactive
16,SRQKINHQCCYKFCVVDYY,1.56 ± 0.091
17,FLFFTEAGYM,inactive
18,RSTVHRYSCDNCVEVIISKQ,1.18 ± 0.12
19,GYGSAQCQFRWWYCFE,-0.317 ± 0.65
20,YPKRMCDRHS,inactive
21,GPNRYW,inactive
22,SNSFVDFRHSDWF,inactive
23,VRSLDNQLSVDFFFVGPVGF,1.3 ± 0.14
24,ITESIVQFLAFWVRDTDYVC,inactive
25,RKPHMTL,inactive
26,YNCRTLNCNYQVYYFVFLSD,3.15 ± 0.062
27,YFLYMCALTHRWFWFKFFER,inactive

row,Substance,amyloid nucleation score
1,DLTTFQDMSTCTLWVTSGYT,inactive
2,DISSFGHFSMSFFNRIIKGA,inactive
3,AVLHNMGFSHILAQLV,inactive
4,RFSYSDTI,inactive
5,AVNPRQFKFTVDEKSIGRVA,inactive
6,RGHNRRMYTWRVCRPSHHCK,inactive
7,LFDCFVILKDFACEFKNIPD,inactive
8,IRITNDNFVVRLVSQTVGLK,inactive
9,LLNCGLMLLRIDVCRATYYV,1.36 ± 0.14
10,SVRRYRSYLVLRRRTGHDRN,inactive
11,VALLDSHGKWFMLGQFLNLK,inactive
12,FIGQGTNWYPYSVGANVSHH,-0.241 ± 0.8
13,IGTLSNLLTKGCKYYGVNIC,inactive
14,FAMETLNSSTFRCYHQFYGF,inactive
15,KFCGEH,inactive
16,EPSGNM,inactive
17,QKQFYGWVAESFARGATIPR,0.871 ± 0.21
18,CPTIPMVGTF,inactive
19,RCSWKTLPMYLMYCCTACHS,inactive
20,ARNFLVRIWHCDRFSDCGII,inactive
21,GYICLGPPAVTVIYVRICRQ,-0.495 ± 1
22,QQSWFTIYDVILYR,inactive
23,YTDWGYDLRNGAGNGYIT,inactive
24,IGVLCALDGISRIAFFSLLL,inactive
25,SREQIVCQVRSITLAYKNSV,inactive
26,VYVRG,inactive
